Experimental data: paper PMC11490872, “Drug-resistant menin variants retain high binding affinity and interactions with MLL1” (The Journal of Biological Chemistry, 2024)
Changes are numbered by the printed parent chain. Read-outs that look alike come from different tables or passages of the source.

Assays:
menin^T349M = target: T1, menin^T349M (Homo sapiens, UniProt O00255, T344M); experiment: ITC binding of MLL1 fragments to menin^T349M
T1 construct: The gene encoding full-length human menin was cloned into a pET32a expression vector; thioredoxin-His6 (cleaved yes); made in house; host or cells: E. coli BL21(DE3)
T1 sequence (O00255 1-610 T344M): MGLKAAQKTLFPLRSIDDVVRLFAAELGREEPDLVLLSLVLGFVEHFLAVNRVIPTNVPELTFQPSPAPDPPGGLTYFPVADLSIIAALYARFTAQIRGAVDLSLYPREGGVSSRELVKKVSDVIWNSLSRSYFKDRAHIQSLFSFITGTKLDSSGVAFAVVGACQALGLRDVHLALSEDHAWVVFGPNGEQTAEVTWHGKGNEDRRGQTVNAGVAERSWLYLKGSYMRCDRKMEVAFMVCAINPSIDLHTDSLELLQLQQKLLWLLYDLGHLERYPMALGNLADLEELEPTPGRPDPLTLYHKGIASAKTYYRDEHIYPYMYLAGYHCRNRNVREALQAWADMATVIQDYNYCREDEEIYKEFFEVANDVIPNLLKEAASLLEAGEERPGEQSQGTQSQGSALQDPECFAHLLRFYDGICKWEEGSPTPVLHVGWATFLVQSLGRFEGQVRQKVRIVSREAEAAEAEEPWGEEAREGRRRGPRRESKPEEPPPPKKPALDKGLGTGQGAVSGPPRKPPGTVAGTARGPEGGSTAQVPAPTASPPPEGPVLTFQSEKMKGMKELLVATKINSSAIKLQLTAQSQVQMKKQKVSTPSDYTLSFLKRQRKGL
Description: (§1) Menin and MLL1 fragments were dialyzed at 4 °C against a 50 mM sodium phosphate pH 7.5, 50 mM NaCl, 1 mM TCEP buffer, and degassed prior to measurement. The titrations were performed using the VP-ITC system (MicroCal) at 25 °C. The calorimetric cell, which contained menin (concentrations in the 5–10 μM range), was titrated with the MLL1^160 and MLL1^4-15 derived peptides (concentration range 40–100 μM) injected in 10-μL aliquots. Data was analyzed using Origin 7.0 (OriginLab) to obtain Kd, stoichiometry, entropy, and enthalpy ([2]). Experiments with WT, M327I, T349M, and G331R menin and MLL1^160 or MLL1^4-15 were run in duplicate. Experiments with G331D menin and MLL1^160 were run in duplicate while experiments with G331D and MLL1^4-15 were run in quadruplicate.

menin^G331D = target: T2, menin^G331D (Homo sapiens, UniProt O00255, G326D); experiment: ITC binding of MLL1 fragments to menin^G331D
T2 construct: The gene encoding full-length human menin was cloned into a pET32a expression vector; thioredoxin-His6 (cleaved yes); made in house; host or cells: E. coli BL21(DE3)
T2 sequence (O00255 1-610 G326D): T1 sequence (O00255 1-610 T344M) with G326D, M344T
Description: as §1

[1] = ITC, representative binding isotherm Fig. 1A, 25 °C, read-out: Kd

Kd (menin^T349M; ITC summary Fig. 1B, values marked *, n = 2, read-out: T349M Kd (nM), ITC): 2.6 ± 0.7 nM | Kd (menin^T349M; [1]): 2.6 ± 0.7 nM | Kd (menin^G331D; ITC summary Fig. 1B, * n = 2, ^ n = 4, read-out: G331D Kd (nM), ITC): 1.4 ± 0.7 nM | Kd (menin^G331D; [1]): 1.4 ± 0.7 nM
B1: MLL1^160: N-terminal 160 amino acids of human MLL1, Cys2 mutated to alanine, recombinant (protein)
chain: MAHSARWRFPARPGTTGGGGGGGRRGLGGAPRQRVPALLLPPGPPVGGGGPGAPPSPPAVAAAAAAAGSSGAGVPGGAAAASAASSSSASSSSSSSSSASSGPALLRVGPGFDAALQVSAAIGTNLRRFRAVFGESGGGGGSGEDEQFLGFGSDEEVRVR
modifications: The printed 'Cys2' is the single N-terminal cysteine, Cys5 in the entry (peptide S4-A5-R6); Trx-His6 tag cleaved
